The data set is described as follows: yeast display, Sf9 membrane polyspecificity reagent, FACS + sequencing; frameworks hold sequencing errors. In a few lines:
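Synthetic nanobody libraries on Saccharomyces cerevisiae BJ5465 were galactose-induced for 36–48 hours, stained 1 hour at 4 °C with 10% biotinylated, detergent-solubilized Sf9 membrane reagent and enriched on streptavidin microbeads. FACS then separated cells into low and high (top ~1%) gates by anti-HA (expression) and streptavidin (reagent binding) fluorescence. Genes were colony-PCR amplified, MiSeq 2 × 250 sequenced and CDR-length filtered. A clone's polyreactivity label is that of its gate of origin.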
“QVQLVESVGGLVQAGGSLRLSCDASGSTFPKYAMGRSRQAPAKEIELVAGISWRGGSTYYADSVKGRFTISRDNAKNTVYLQMNSLKPEDTAVYYCNKYLYYSFQDDYWGQGTQVTVSS”: the “polyreactivity (PSR sort gate)” value is reported as “high polyreactivity”.
Regarding “QVQLVESVGGLVQAGGSLRLSCPASGFTFKYYAMGWYRQAPGKEREFVAAISRSGGSTTYADSVKGRFTISRDNAKNTVYLQMNSLKPEDTAVYYCAVAYYTAYTPRDGEYWGQGTQVTVSS”, the “polyreactivity (PSR sort gate)” value is “high polyreactivity”.
For the sequence “QVQLVESVGGLVQAGGSLRLSCPASGSIFYANAMGGYRQAPGKERELVATISTGGGRTYYADSVKGRFTISRDKAKNTVYLQMNSLKAEDTAVYYCNATRNYARVRYYYWGKGTQVTVSS”, the “polyreactivity (PSR sort gate)” value is on record as “high polyreactivity”.
On to “QVQLVESVGGLVQAGGSLRLSSAASGFTFVPYAMGWYRQAPGKERETNADSVKGRFTISRDNAKNTVYLQMNSLKPEDTAVYYCAADLGRGIYDYWGQGTQVTVSS”, for which the “polyreactivity (PSR sort gate)” value is reported as “low polyreactivity”.
On to “QVQLVESVGGLVQAGRSLRLSCAASGNTFLRYAMGWYRQAPGKERELVAAISRSGGSTYYADSVKGRFTISRDNAKNTVYLQMNSLKPEDTAVYYCAARRSSQPDKGYYYWGQGTQVTVSS”, for which the “polyreactivity (PSR sort gate)” value is “high polyreactivity”.
As to “QVQLVESVGGLVQEGGSLRLSCAASGSNFQWYAMGWYRQAPGKERELVAAIRYSGDSTYYADSVKGRFTISRDNAKNTDYLQMNSLKPEDTAVYYCAAEATTRWLLYNYWGQGTQVTVSS”, the “polyreactivity (PSR sort gate)” value is listed as “high polyreactivity”.
To “QVQLVESVGGLVQPGGSLRLSCAASGRTFGRYAKGWYRQAPGKERELVAGISRSGDSTHYADSLKGRFTISRDNAKYCVYLQMKSLKPEDTEVYYCNKETPTIGARKYEYWGQGTQVNVSS” belongs “low polyreactivity”; to “QVQLVESVGGLVQSGGSLRLSCAASGFTFYRYGIGWYREAPGKERELVAAITSGGITYYADSVKGRFTISRDNAKNTVYLQLNSLKPEDTAVYYCNAVYPVAAIVRYDYWGQGTQVTVSS”, “high polyreactivity”.
On to “QVQLVESVGGVVQAGGSLRLSCAASGSIFRWNAMGWYRQARGKEWELVAVNTWRGGRTYYADSVKGRFTFSRDNAKKTVYLQMNSLNPEYTSFSYCAKGRLVTTLFGHYATCEYDSWGHGTQVTVSS”, for which the “polyreactivity (PSR sort gate)” value is reported as “high polyreactivity”.
With “QVQLVESVGVLVQAGARLRLSCAASGSIFRTNTMGSYRQAPVKERELVAAITAIGDSTYYGDSVKGRFTISRDNAKNTVYLQMNSLKPEDTAVYYCAAEKVSWGYHFYSSSDYWGQATQVTVSS”, the “polyreactivity (PSR sort gate)” value is listed as “low polyreactivity”.
Turning to “QVQLVESVGVLVQAGGSLRLSCAASVSIFDYNAMGWYRQAPGKERELVADITISDDSTYYADSVKGRFTISRDNAKNTVYLQMNSLKPEDTAVYYCAADIKYYWYYYYWAYAYDYWGQGTQVTVSS”, the “polyreactivity (PSR sort gate)” value is reported as “high polyreactivity”.
Turning to “QVQLVESVRGLVQAGGSLRLSCAASGFIFRSYAMGWYRQAPGKEREFVAAISRSGGRTYYADSVKGRFTISRDNAKNTVYLQMNCLKPEDTAVYYCAATVGGSYTFDYWGQGTQVTVSS”, the “polyreactivity (PSR sort gate)” value is “high polyreactivity”.
“QVQLVESVVGLVQAGGILRLSCSASGRTFVHYTMGWYRQAPGKETELVAAISGTGTSTYYADSVKGRFTISRDNAKNTVYLQMNSLKPEDTAVYYCARDPYFGFHMGYPRRDYWGQGTHVTVSS”: the “polyreactivity (PSR sort gate)” value is listed as “low polyreactivity”.
As for “QVQLVESVVGLVQAGGSLRLRCAASGIIFSKYAMGWYIQEPGKERELVARISWRGGDTYYADSVKGRFTISRDNAKNTVYLKMNSMKQEDTSVYYFNARIWGRYFSYTRFDYWGQCTQVTVSS”, the “polyreactivity (PSR sort gate)” value was “high polyreactivity”.
As for “QVQLVESVVGLVQAGGSLRLSCAASGITFNRNAMGWYIEAPGKERELVAAISSGGSTNYADSVKGRFTISRDNAKNTVYLQMNSLKPEDTAVYYCARAQYWYGKGYYYWGQGTQVTVSS”, the “polyreactivity (PSR sort gate)” value was “high polyreactivity”.
As for “QVQLVESVVGLVQAGGSLRLSCAASGRIFIIYAMGWYIQAPGKEREFVAAITSSGGSTYYGDSVKGRFTISRDNAKNTVYLQMNSLKPEDSAVYYCAARVTKLRTSSLRGYWGQGTQVTVSS”, the “polyreactivity (PSR sort gate)” value was “high polyreactivity”.
Regarding “QVQLVESVVGLVQAGGSLRLSCAASGRTFYRNGMGWYRQAPGKERELVAAISSRGGSTYYADSVKGRFTISRDNAKNTVYLQMNSLKPEDTAVYYCAAPRASGYYWGQGTQVTVSS”, the “polyreactivity (PSR sort gate)” value is reported as “high polyreactivity”.
Regarding “QVQLVESVVGLVQAGGSLRLSCAATGSIFRWYAMGWYRQAPGKERELVAAITWSASRTYYADSVKGRFTISRDNGKNTVYLQMNSLKPEDTAVYYCAADHDCPYAGYDSWGQGTQVTVSS”, the “polyreactivity (PSR sort gate)” value is on record as “low polyreactivity”.
Regarding “QVQLVESVVGLVQAGGSLRLSCDASGRIFRYYAMGWYRQAPGKERELVARITSSGSTYYADSVKGRFTISRDNAKNTVYLQMNSLKPDDTAVYYCAADWYWGGIVDSWGQGTQVTVSS”, the “polyreactivity (PSR sort gate)” value was “high polyreactivity”.
In the case of “QVQLVESVVGLVQAGGSLRLSSAASGRIFNQYGMGWYRQSPGKESELVAAIRSGDSTNYADSVKGRFTISRDNAKNTVYLQMNSLKPEDTAVYYCARDLPGDYAGFDYWGQGTQVTVSS”, the “polyreactivity (PSR sort gate)” value is “low polyreactivity”.
To “QVQLVESWGGLDQAGGSLRLSCAASGSTFYAYAMGWYRPAPGKERELVAAISSDGTNYADSVKGRFTISRDNAKNTVYLQMNSLKPEDTAVYYCAADLLLYSSQDNDFWGQGTQVTVSS” belongs “low polyreactivity”; to “QVQLVESWGGLFQAGGTLRLSCAASGRTFIGYDMEWYRQAPGKERELVATISWNGADTYYADSVKGRYTISRDNAKNTVYLKMNSLKPEDTEVYYCAAERENGDHYRYYYWGQGTQVTVSS”, “low polyreactivity”; to “QVQLVESWGGLVQAGGSLRLSCAASGFIFSRYAMGWYRQAPGKERELVAAISSRGGSTYYADSVKGRFTISRDNAKNTVYLQMNSLKPEDTAVYYCAKSSPTPHYYWGQGTQVTVSS”, “high polyreactivity”.
Consider “QVQLVESWGGLVQAGGSLRLSCAASGFTFLNYAMGWYRQAPGKERELVAAISFSTGRTYYADSVKGRFTISRDNAKNTDYLQMNSLKPEDTAVYYGAAGYWPGYSLTYRGGYWGQGTQVTVSS”, for which the “polyreactivity (PSR sort gate)” value is reported as “high polyreactivity”.
Regarding “QVQLVESWGGLVQAGGSLRLSCAASGFTLTPYAMGWYRQAPGKERELVAASRWSGGSTYYADSVKGRFTISRDNAKNTVYLQMNSLKPEDTAVYYCAARYAYRPVNGYKYWGQGTQVTVSS”, the “polyreactivity (PSR sort gate)” value is on record as “high polyreactivity”.
For the sequence “QVQLVESWGGLVQAGGSLRLSCAASGGTFGNNDMGWYRQAPGKERELVAAIRSAGTTYYADSVKGRFTISRDNAKNTVYLQMNSLKPEDTAVYYCNADTTGYWSYGFQYYGEDYWGQGTQVTVSS”, the “polyreactivity (PSR sort gate)” value is “low polyreactivity”.
To “QVQLVESWGGLVQAGGSLRLSCAASGINFWVYAMGWYRQAPGQERELVAAISRRGGSTSYADSVKGRFTISRDNAKNTVYLQMKSLKPEDTAVYFCAATTYTHPYGYWGQGTQVTVSS” belongs “high polyreactivity”.
In the case of “QVQLVESWGGLVQAGGSLRLSCAASGITFFFYAMGLYRLAPGKERELVASITWEDGSTYYADSVKGRFTISRDNANNTVYLQKNSLKPEDTAVYYCAADFEAGGYSLDYWGQGTQVTVSS”, the “polyreactivity (PSR sort gate)” value is “low polyreactivity”.
On to “QVQLVESWGGLVQAGGSLRLSCAASGITFFTYAMGWYRQAPGKERELVAGISKTGGRSYYADSVKGRFTISRDNSKNTVYLQMNSLKPDDTAVYFCAAYFRSDYGYWGQGNQVTVSS”, for which the “polyreactivity (PSR sort gate)” value was “high polyreactivity”.
Take “QVQLVESWGGLVQAGGSLRLSCAASGITFLRNTMGWYRQAPGKERELVAAISRGGSTYYADSVKGRFTISRDNAKNTVFLQMKSLKPEDTAVYYCNAPSYVQATDYDYWGQGTQVTVSS”: the “polyreactivity (PSR sort gate)” value is listed as “high polyreactivity”.
To “QVQLVESWGGLVQAGGSLRLSCAASGITFPINTMGWYRQAPGKERELVAGIDWTGGSTYYADSVKGRFTISRDNAKNTVYLQMNSLKPEDTAVYYCAKRSYTGYEYWGQGTQVTVSS” belongs “low polyreactivity”.
In the case of “QVQLVESWGGLVQAGGSLRLSCAASGNTIIRYAMGWYSQAPGKERELVAAISRSGGRTYYADSVKGRFTISRDNAKNTVYLQMNSLKPEDTAVYYCAAKIYIPRGYDYWGQGTQVTVSS”, the “polyreactivity (PSR sort gate)” value is reported as “high polyreactivity”.
“QVQLVESWGGLVQAGGSLRLSCAASGRIFGANARGWYRQAPGKERELVATITYGGTSTYYADSVKGRFTISRDNAKNSVYLQLNSLKPEYTADYYCAAASTYPLPYDFWGQGTQVTVSS”: the “polyreactivity (PSR sort gate)” value is “low polyreactivity”.
Take “QVQLVESWGGLVQAGGSLRLSCAASGRIFYKYAMGWYRQAPGKERELVAAISYSGGSTYYADSVKGRFTISRDNAKITVYLQMKSLKQEDTAVDDCNAKPPYGVRSWGDYWGQGTKVTVSS”: the “polyreactivity (PSR sort gate)” value is “low polyreactivity”.
Regarding “QVQLVESWGGLVQAGGSLRLSCAASGRTIEQYAMGWYRQAPGKERELVAAISGSGGSTFYADSVKGRFTISRDNAKNTVYLQMNSLKPEDTAVYYCNAPGDGYLYDHTYDYWGQGTQVTVSS”, the “polyreactivity (PSR sort gate)” value is listed as “low polyreactivity”.
As to “QVQLVESWGGLVQAGGSLRLSCAASGSIFDFNGMGCYRQAPGKERELVAAISGGGGSTYYADSVKGRFTISRDNAKNTVYLQMNSLKPEDTAVYYCAAAYSTYRFIYEYWGQATQVTVSS”, the “polyreactivity (PSR sort gate)” value is “high polyreactivity”.
As to “QVQLVESWGGLVQAGGSLRLSCAASGSIFRRYAMGWYRQAPGKERELVAAISIGGRTYYADSVKGRFTISRDNAKNTVYFQMNSLKPEDTAVYYCAARESRSWGGGSWGQGTQVTVSS”, the “polyreactivity (PSR sort gate)” value is recorded as “high polyreactivity”.
For the sequence “QVQLVESWGGLVQAGGSLRLSCAASGSIFYVNDMGWYRQAPGKERELVAAISSTGSTKYADSVKGRFTISRDNAKNTVYLQMNSLKPEDTAVSYCAKEPGHRFEFDYWGQGTQVTVSS”, the “polyreactivity (PSR sort gate)” value was “low polyreactivity”.
To “QVQLVESWGGLVQAGGSLRLSCAASGSTFAQNTMGWYRQAPGKERELVATISDGGGSTYYADSVKGRFTISRDNAKNTVYLQMNSLKPEDTAVYYCNTDRFWPSYYWGQGTQVTVSS” belongs “low polyreactivity”.
Take “QVQLVESWGGLVQAGGSLRLSCAASGSTFGKYAMGWYRQAPGKERELVAAISYRGGRTFYADSVKGRFTISRDNAKNTVYLQMNSLKPEDTAVYYCAAYPGVSRGTGPRRYDYWGQGTQVTVSS”: the “polyreactivity (PSR sort gate)” value is given as “high polyreactivity”.
“QVQLVESWGGLVQAGGSLRLSCAASGSTFSPYAMGWYRQAPGKEREMVATINRGGGSTNYADSVKGRFTISRDNAKNTVYLQMNSRKPEDTAVYYCARVNAAVGYYYRYEYWGHGTQVTVSS”: the “polyreactivity (PSR sort gate)” value is “high polyreactivity”.

(Values after the nanobody polyreactivity screen of Harvey et al. (2022).)
